Source: publication PMC9482650, “Quantitative fragmentomics allow affinity mapping of interactomes” (Nature Communications, 2022)

T1: PCLO, Q9Y6V0
T1 sequence (Q9Y6V0 4491-4600, limits assumed, looked up): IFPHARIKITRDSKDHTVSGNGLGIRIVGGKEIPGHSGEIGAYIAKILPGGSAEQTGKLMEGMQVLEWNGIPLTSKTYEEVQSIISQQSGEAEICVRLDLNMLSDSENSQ

T2: LRRC7, Q96NW7
T2 sequence (Q96NW7 1440-1537, limits assumed, looked up): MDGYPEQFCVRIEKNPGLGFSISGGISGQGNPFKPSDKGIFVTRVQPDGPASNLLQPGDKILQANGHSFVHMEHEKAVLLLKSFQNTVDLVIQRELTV

T3: MPP7, Q5T2T1
T3 sequence (Q5T2T1 134-230, limits assumed, looked up): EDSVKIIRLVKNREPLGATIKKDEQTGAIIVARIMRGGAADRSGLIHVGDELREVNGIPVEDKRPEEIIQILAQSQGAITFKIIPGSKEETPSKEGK

T4: SYNJ2BP, P57105
T4 sequence (P57105 8-110, limits assumed, looked up): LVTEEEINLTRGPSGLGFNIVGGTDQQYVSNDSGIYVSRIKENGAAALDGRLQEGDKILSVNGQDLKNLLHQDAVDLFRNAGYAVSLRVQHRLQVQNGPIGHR

T5: NHERF3_4, Q5T2W1
T5 sequence (Q5T2W1 373-468, limits assumed, looked up): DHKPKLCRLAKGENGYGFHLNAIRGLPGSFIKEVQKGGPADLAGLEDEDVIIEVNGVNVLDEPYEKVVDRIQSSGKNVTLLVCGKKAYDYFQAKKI

T6: GRIP1_7, Q9Y3R0
T6 sequence (Q9Y3R0 999-1096, limits assumed, looked up): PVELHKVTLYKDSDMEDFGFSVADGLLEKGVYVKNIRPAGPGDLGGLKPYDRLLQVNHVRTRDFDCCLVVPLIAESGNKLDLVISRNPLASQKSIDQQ

T7: RHPN1, Q8TCX5
T7 sequence (Q8TCX5 508-602, limits assumed, looked up): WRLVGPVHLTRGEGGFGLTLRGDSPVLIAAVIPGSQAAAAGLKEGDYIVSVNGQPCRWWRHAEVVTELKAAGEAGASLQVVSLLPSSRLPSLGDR

T8: NHERF3_3, Q5T2W1
T8 sequence (Q5T2W1 238-333, limits assumed, looked up): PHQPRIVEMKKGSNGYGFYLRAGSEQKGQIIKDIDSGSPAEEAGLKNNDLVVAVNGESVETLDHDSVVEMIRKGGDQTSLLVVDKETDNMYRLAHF

T9: MPDZ_5, O75970
T9 sequence (O75970 695-796, limits assumed, looked up): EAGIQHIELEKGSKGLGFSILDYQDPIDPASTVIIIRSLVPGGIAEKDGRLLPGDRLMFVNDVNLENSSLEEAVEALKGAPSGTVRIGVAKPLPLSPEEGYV

T10: GRIP1_3, Q9Y3R0
T10 sequence (Q9Y3R0 247-346, limits assumed, looked up): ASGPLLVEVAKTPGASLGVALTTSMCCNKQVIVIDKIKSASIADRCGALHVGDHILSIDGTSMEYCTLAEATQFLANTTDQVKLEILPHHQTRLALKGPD

T11: TX1BP3, O14907
T11 sequence (O14907 10-122, limits assumed, looked up): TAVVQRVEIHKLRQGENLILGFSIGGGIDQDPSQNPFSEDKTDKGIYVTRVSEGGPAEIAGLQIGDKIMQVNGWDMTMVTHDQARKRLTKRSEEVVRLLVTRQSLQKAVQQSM

T12: SNTA1, Q13424
T12 sequence (Q13424 82-180, limits assumed, looked up): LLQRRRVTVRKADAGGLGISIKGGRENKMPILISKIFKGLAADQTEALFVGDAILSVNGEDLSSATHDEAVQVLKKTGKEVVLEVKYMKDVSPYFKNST


These binders were tested against T1, PCLO, Q9Y6V0 (assay: holdup assay). Settings: plain residues with an end cap or a label only (N-terminal biotin on a linker: ado-ado).
Set-up: key: below the threshold = too weak to quantify, mostly under pKd 3.1 to 4

Binder	pKd
TKGPRGPTRV [SAPCD1, Q5SSQ6]	below the threshold
QGPVETESVV [SLC45A4, Q5BKX6]	below the threshold

What follows are binders tested against GRIP2_7, Q9C0E4 (assay: holdup assay). Settings: plain residues with an end cap or a label only (N-terminal biotin on a linker: ado-ado).
Chain of GRIP2_7, Q9C0E4 (Q9C0E4 934-1023): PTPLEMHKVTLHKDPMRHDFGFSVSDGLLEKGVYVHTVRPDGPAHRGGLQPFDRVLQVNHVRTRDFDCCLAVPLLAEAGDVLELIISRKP
Set-up: key: below the threshold = too weak to quantify, mostly under pKd 3.1 to 4

Binder	pKd
TKGPRGPTRV [SAPCD1, Q5SSQ6]	below the threshold
QGPVETESVV [SLC45A4, Q5BKX6]	below the threshold

What follows are binders tested against T2, LRRC7, Q96NW7 (assay: holdup assay). Settings: plain residues with an end cap or a label only (N-terminal biotin on a linker: ado-ado).
Set-up: key: below the threshold = too weak to quantify, mostly under pKd 3.1 to 4

Binder	pKd
TKGPRGPTRV [SAPCD1, Q5SSQ6]	below the threshold
QGPVETESVV [SLC45A4, Q5BKX6]	3.73

The binders below were run against MAGI2_4, Q86UL8 (assay: holdup assay). Settings: plain residues with an end cap or a label only (N-terminal biotin on a linker: ado-ado).
Chain of MAGI2_4, Q86UL8 (Q86UL8 772-865): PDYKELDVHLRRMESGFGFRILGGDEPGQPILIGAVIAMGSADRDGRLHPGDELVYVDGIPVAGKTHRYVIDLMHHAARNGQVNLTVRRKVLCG
Set-up: key: below the threshold = too weak to quantify, mostly under pKd 3.1 to 4

Binder	pKd
TKGPRGPTRV [SAPCD1, Q5SSQ6]	below the threshold
QGPVETESVV [SLC45A4, Q5BKX6]	3.76

The binders below were run against LIMK2, P53671 (assay: holdup assay). Settings: plain residues with an end cap or a label only (N-terminal biotin on a linker: ado-ado).
Chain of LIMK2, P53671 (P53671 143-248): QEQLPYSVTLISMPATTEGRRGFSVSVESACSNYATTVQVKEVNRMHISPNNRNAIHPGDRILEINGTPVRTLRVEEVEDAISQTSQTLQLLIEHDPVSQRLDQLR
Set-up: key: below the threshold = too weak to quantify, mostly under pKd 3.1 to 4

Binder	pKd
TKGPRGPTRV [SAPCD1, Q5SSQ6]	below the threshold
QGPVETESVV [SLC45A4, Q5BKX6]	below the threshold

These binders were tested against T3, MPP7, Q5T2T1 (assay: holdup assay). Settings: plain residues with an end cap or a label only (N-terminal biotin on a linker: ado-ado).
Set-up: key: below the threshold = too weak to quantify, mostly under pKd 3.1 to 4

Binder	pKd
TKGPRGPTRV [SAPCD1, Q5SSQ6]	below the threshold
QGPVETESVV [SLC45A4, Q5BKX6]	below the threshold

What follows are binders tested against DLG2_3, Q15700 (assay: holdup assay). Settings: plain residues with an end cap or a label only (N-terminal biotin on a linker: ado-ado).
Set-up: key: below the threshold = too weak to quantify, mostly under pKd 3.1 to 4

Binder	pKd
TKGPRGPTRV [SAPCD1, Q5SSQ6]	4.55
QGPVETESVV [SLC45A4, Q5BKX6]	below the threshold

What follows are binders tested against T4, SYNJ2BP, P57105 (assay: holdup assay). Settings: plain residues with an end cap or a label only (N-terminal biotin on a linker: ado-ado).
Set-up: key: below the threshold = too weak to quantify, mostly under pKd 3.1 to 4

Binder	pKd
TKGPRGPTRV [SAPCD1, Q5SSQ6]	4.25
QGPVETESVV [SLC45A4, Q5BKX6]	4.49

The binders below were run against MAGI2_3, Q86UL8 (assay: holdup assay). Settings: plain residues with an end cap or a label only (N-terminal biotin on a linker: ado-ado).
Chain of MAGI2_3, Q86UL8 (Q86UL8 600-682): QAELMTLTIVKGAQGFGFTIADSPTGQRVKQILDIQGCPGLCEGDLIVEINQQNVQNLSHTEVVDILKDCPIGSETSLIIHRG
Set-up: key: below the threshold = too weak to quantify, mostly under pKd 3.1 to 4

Binder	pKd
TKGPRGPTRV [SAPCD1, Q5SSQ6]	4.69
QGPVETESVV [SLC45A4, Q5BKX6]	3.65

What follows are binders tested against T5, NHERF3_4, Q5T2W1 (assay: holdup assay). Settings: plain residues with an end cap or a label only (N-terminal biotin on a linker: ado-ado).
Set-up: key: below the threshold = too weak to quantify, mostly under pKd 3.1 to 4

Binder	pKd
TKGPRGPTRV [SAPCD1, Q5SSQ6]	below the threshold
QGPVETESVV [SLC45A4, Q5BKX6]	below the threshold

The binders below were run against PDZRN4_1, Q6ZMN7 (assay: holdup assay). Settings: plain residues with an end cap or a label only (N-terminal biotin on a linker: ado-ado).
Chain of PDZRN4_1, Q6ZMN7 (Q6ZMN7 213-318): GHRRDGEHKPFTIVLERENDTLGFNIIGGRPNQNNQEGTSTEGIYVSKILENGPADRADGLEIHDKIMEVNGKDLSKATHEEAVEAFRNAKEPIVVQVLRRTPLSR
Set-up: key: below the threshold = too weak to quantify, mostly under pKd 3.1 to 4

Binder	pKd
TKGPRGPTRV [SAPCD1, Q5SSQ6]	3.67
QGPVETESVV [SLC45A4, Q5BKX6]	3.64

What follows are binders tested against DLG1_2, Q12959 (assay: holdup assay). Settings: plain residues with an end cap or a label only (N-terminal biotin on a linker: ado-ado).
Chain of DLG1_2, Q12959 (Q12959 314-412): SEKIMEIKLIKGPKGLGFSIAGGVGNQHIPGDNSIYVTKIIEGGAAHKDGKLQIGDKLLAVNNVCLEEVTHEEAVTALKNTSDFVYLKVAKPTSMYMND
Set-up: key: below the threshold = too weak to quantify, mostly under pKd 3.1 to 4

Binder	pKd
TKGPRGPTRV [SAPCD1, Q5SSQ6]	4.68
QGPVETESVV [SLC45A4, Q5BKX6]	4.69

These binders were tested against T6, GRIP1_7, Q9Y3R0 (assay: holdup assay). Settings: plain residues with an end cap or a label only (N-terminal biotin on a linker: ado-ado).
Set-up: key: below the threshold = too weak to quantify, mostly under pKd 3.1 to 4

Binder	pKd
TKGPRGPTRV [SAPCD1, Q5SSQ6]	below the threshold
QGPVETESVV [SLC45A4, Q5BKX6]	below the threshold

What follows are binders tested against DLG5_1, Q8TDM6 (assay: holdup assay). Settings: plain residues with an end cap or a label only (N-terminal biotin on a linker: ado-ado).
Chain of DLG5_1, Q8TDM6 (Q8TDM6 617-713): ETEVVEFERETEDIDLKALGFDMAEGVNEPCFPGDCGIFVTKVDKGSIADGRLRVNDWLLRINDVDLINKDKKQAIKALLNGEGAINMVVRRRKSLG
Set-up: key: below the threshold = too weak to quantify, mostly under pKd 3.1 to 4

Binder	pKd
TKGPRGPTRV [SAPCD1, Q5SSQ6]	below the threshold
QGPVETESVV [SLC45A4, Q5BKX6]	below the threshold

The binders below were run against T7, RHPN1, Q8TCX5 (assay: holdup assay). Settings: plain residues with an end cap or a label only (N-terminal biotin on a linker: ado-ado).
Set-up: key: below the threshold = too weak to quantify, mostly under pKd 3.1 to 4

Binder	pKd
TKGPRGPTRV [SAPCD1, Q5SSQ6]	below the threshold
QGPVETESVV [SLC45A4, Q5BKX6]	4.47

The binders below were run against T8, NHERF3_3, Q5T2W1 (assay: holdup assay). Settings: plain residues with an end cap or a label only (N-terminal biotin on a linker: ado-ado).
Set-up: key: below the threshold = too weak to quantify, mostly under pKd 3.1 to 4

Binder	pKd
TKGPRGPTRV [SAPCD1, Q5SSQ6]	below the threshold
QGPVETESVV [SLC45A4, Q5BKX6]	below the threshold

Each binder was assayed against T9, MPDZ_5, O75970 (assay: holdup assay). Settings: plain residues with an end cap or a label only (N-terminal biotin on a linker: ado-ado).
Set-up: key: below the threshold = too weak to quantify, mostly under pKd 3.1 to 4

Binder	pKd
TKGPRGPTRV [SAPCD1, Q5SSQ6]	below the threshold
QGPVETESVV [SLC45A4, Q5BKX6]	below the threshold

Each binder was assayed against T10, GRIP1_3, Q9Y3R0 (assay: holdup assay). Settings: plain residues with an end cap or a label only (N-terminal biotin on a linker: ado-ado).
Set-up: key: below the threshold = too weak to quantify, mostly under pKd 3.1 to 4

Binder	pKd
TKGPRGPTRV [SAPCD1, Q5SSQ6]	below the threshold
QGPVETESVV [SLC45A4, Q5BKX6]	below the threshold

Each binder was assayed against GRID2IP_2, A4D2P6 (assay: holdup assay). Settings: plain residues with an end cap or a label only (N-terminal biotin on a linker: ado-ado).
Chain of GRID2IP_2, A4D2P6 (A4D2P6 272-370): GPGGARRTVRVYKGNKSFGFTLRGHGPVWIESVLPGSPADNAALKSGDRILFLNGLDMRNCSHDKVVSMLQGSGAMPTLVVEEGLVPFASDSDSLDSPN
Set-up: key: below the threshold = too weak to quantify, mostly under pKd 3.1 to 4

Binder	pKd
TKGPRGPTRV [SAPCD1, Q5SSQ6]	4.58
QGPVETESVV [SLC45A4, Q5BKX6]	3.55

The binders below were run against MAST1, Q9Y2H9 (assay: holdup assay). Settings: plain residues with an end cap or a label only (N-terminal biotin on a linker: ado-ado).
Chain of MAST1, Q9Y2H9 (Q9Y2H9 962-1065): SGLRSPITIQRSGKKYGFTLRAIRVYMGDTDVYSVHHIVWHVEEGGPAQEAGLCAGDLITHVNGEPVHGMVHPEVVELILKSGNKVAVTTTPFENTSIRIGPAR
Set-up: key: below the threshold = too weak to quantify, mostly under pKd 3.1 to 4

Binder	pKd
TKGPRGPTRV [SAPCD1, Q5SSQ6]	4.09
QGPVETESVV [SLC45A4, Q5BKX6]	4.36

What follows are binders tested against Inadl_5, Q8NI35 (assay: holdup assay). Settings: plain residues with an end cap or a label only (N-terminal biotin on a linker: ado-ado).
Chain of Inadl_5, Q8NI35 (Q8NI35 673-780): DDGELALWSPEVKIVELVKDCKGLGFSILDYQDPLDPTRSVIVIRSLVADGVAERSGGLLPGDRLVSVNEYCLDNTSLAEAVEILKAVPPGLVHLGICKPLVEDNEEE
Set-up: key: below the threshold = too weak to quantify, mostly under pKd 3.1 to 4

Binder	pKd
TKGPRGPTRV [SAPCD1, Q5SSQ6]	3.61
QGPVETESVV [SLC45A4, Q5BKX6]	3.54

Each binder was assayed against T11, TX1BP3, O14907 (assay: holdup assay). Settings: plain residues with an end cap or a label only (N-terminal biotin on a linker: ado-ado).
Set-up: key: below the threshold = too weak to quantify, mostly under pKd 3.1 to 4

Binder	pKd
TKGPRGPTRV [SAPCD1, Q5SSQ6]	below the threshold
QGPVETESVV [SLC45A4, Q5BKX6]	3.81

Each binder was assayed against HTRA1, Q92743 (assay: holdup assay). Settings: plain residues with an end cap or a label only (N-terminal biotin on a linker: ado-ado).
Chain of HTRA1, Q92743 (Q92743 360-477): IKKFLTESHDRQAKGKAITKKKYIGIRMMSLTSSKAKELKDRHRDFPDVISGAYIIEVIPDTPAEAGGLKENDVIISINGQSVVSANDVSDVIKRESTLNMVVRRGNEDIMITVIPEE
Set-up: key: below the threshold = too weak to quantify, mostly under pKd 3.1 to 4

Binder	pKd
TKGPRGPTRV [SAPCD1, Q5SSQ6]	below the threshold
QGPVETESVV [SLC45A4, Q5BKX6]	4.55

What follows are binders tested against T12, SNTA1, Q13424 (assay: holdup assay). Settings: plain residues with an end cap or a label only (N-terminal biotin on a linker: ado-ado).
Set-up: key: below the threshold = too weak to quantify, mostly under pKd 3.1 to 4

Binder	pKd
TKGPRGPTRV [SAPCD1, Q5SSQ6]	4.39
QGPVETESVV [SLC45A4, Q5BKX6]	4.93

These binders were tested against DLG2_2, Q15700 (assay: holdup assay). Settings: plain residues with an end cap or a label only (N-terminal biotin on a linker: ado-ado).
Set-up: key: below the threshold = too weak to quantify, mostly under pKd 3.1 to 4

Binder	pKd
TKGPRGPTRV [SAPCD1, Q5SSQ6]	4.38
QGPVETESVV [SLC45A4, Q5BKX6]	4.45
